# The RNAGym collection of RNA variant scans (doi:10.7554/elife.90254)
# B1: LINE1-full (parent)
# chain: UACGUAGGUGGUUUUCCCCUGAUAGUGCUAAGGGGGCCUGGAAGUUUGGACUGGGCAGAGCUCAACACAGCGUGGCAAAGUGGCUGUGGCUAGACUGCCUCUCUGGAUUCCUCGUCACUCAGCAGGGCAUCUCUGAGAGAAAUGCC
# Variants of: B1
# Assay: self-cleavage, relative activity (ratio to wild type); higher = more cleavage; in vitro, sequencing; the parent is a self-cleaving ribozyme
row,Variant,self-cleavage
1,U26G U108A,1.03
2,U26G A121C,1.31
3,G25A A43G,1.27
4,G25A U39A,1.15
5,U26A C84U,0.02
6,U26A G72A,0.94
7,U26C G32C,0.94
8,U26C G32A,1.03
9,U26C U102A,1.31
10,U26C U102C,1.22
11,C28G C98A,0.12
12,G25U G49U,1.21
13,U26C C111A,1.04
14,A24U G33A,1.07
15,A24U G137U,2.12
16,U26A C145A,1.07
17,U26C U96C,0.29
18,U26C A136G,1.42
19,C28A U81C,0.89
20,G25C U85C,0.2
21,U26A C28U,0.99
22,G25A G54C,1.02
23,G27A A42G,0.99
24,G25A A136G,1.58

row,Variant,self-cleavage
1,C28G C128U,1.8
2,U26C G72A,0.93
3,U26C G72U,1.02
4,U26A G122A,0.72
5,A24U G126A,1.34
6,A24U G126U,1.22
7,U26A A77U,0.78
8,U26A A77C,0
9,G27U G82A,1.51
10,A24U U87A,0.11
11,A24U C110A,1.1
12,C28A U85C,0.17
13,U26C C38U,1.29
14,U26A U52C,0.8
15,U26G U130C,0.86
16,U26C G33U,1.01
17,U26C G33A,0.7
18,G27A G36C,1.24
19,C28U A50G,1.09
20,U26A U87G,0.13
21,U26A U87C,0.15
22,G25A U109A,1.72
23,G25C U91C,0.97
24,A24U A117C,1.6

row,Variant,self-cleavage
1,U26G A69G,0.17
2,G25C U102C,1.31
3,G27A U91C,0.35
4,U26A C63U,0.37
5,G25A A92U,0.25
6,A24U A92U,0.7
7,C28A U47C,0.63
8,G27A A57U,0.04
9,G25A A67G,0.5
10,C28U A117G,1.58
11,U26A A117U,0.98
12,G27A A140G,1.38
13,U26C G88A,0.05
14,G25A U46A,1.42
15,U26G U81C,0.58
16,U26C U100C,1.29
17,U26A G137A,1.53
18,G25A C99G,0.06
19,U26A A141U,0.61
20,A24U A140U,2
21,U26A U109C,0.95
22,U26C U39G,0.65
23,U26C U39A,1.9
24,A24U A129U,1.26

row,Variant,self-cleavage
1,U26C U73G,0.97
2,G27A A30U,1.58
3,C28A U108C,1.82
4,U26C A31U,1.05
5,G25A U143A,1.12
6,U26C C101U,1.46
7,U26A U108C,1.13
8,A24U A57G,0.56
9,U26C U132A,1.73
10,C28A A141G,0.61
11,U26C U45A,0.99
12,U26C U45C,1.07
13,A24G U143A,0.72
14,C28G U100A,0.81
15,G27C U112C,1.53
16,G25U U39C,0.47
17,G25U A65G,0.01
18,U26A A136G,1.57
19,G25U U119C,1.74
20,G25U U119A,1.69
21,U26A A65U,0.14
22,U26A A65G,0.16
23,G25A A142C,2.3
24,G25A A142U,0.93

row,Variant,self-cleavage
1,G27A A121G,1.46
2,C28G A65U,0
3,U26C G44A,1.17
4,U26C A69G,0.46
5,U26C A69U,0.11
6,G27U G41U,1.26
7,U26A C113U,0.86
8,U26C G70A,0.14
9,A24U A121G,1.08
10,C28U A59G,0.09
11,A24U U62A,0.03
12,U26C G114A,1.22
13,G27U U47C,0.88
14,U26A G127U,1.16
15,A24U A94G,0.47
16,G25A G35A,0.91
17,U26G A107G,0
18,U26A G36C,0.41
19,G25A A59G,0.09
20,G25A U85A,0.08
21,U26G A50G,0.56
22,G27U U73C,1.51
23,C28A A129G,1.5
24,G27U U132A,1.23

row,Variant,self-cleavage
1,U26C A59C,1.37
2,U26C A59G,0.08
3,G25C U119C,1.58
4,U26G U62A,0.03
5,U26G U62C,0.19
6,A24U G122U,1.33
7,G27C G54U,0.17
8,U26C U87C,0.26
9,U26G G105A,1.06
10,G27A A138C,1.18
11,A24U U47C,1.57
12,U26C C123U,1.06
13,U26A U96C,0.16
14,U26A U96A,0.09
15,U26A U115A,1.07
16,G27U U52C,0.36
17,C28U A94G,0.3
18,U26C G86A,0.05
19,G27A G34A,0.64
20,C28A G32A,0.7
21,G27A U81C,0.8
22,G25U A43C,1.32
23,A24U A138G,0.94
24,C28A A64G,0.28

row,Variant,self-cleavage
1,G25A U108C,1.24
2,U26C U52A,1.53
3,U26C A140C,1.19
4,U26C A140G,1.19
5,A24U G93A,0.06
6,U26G U73C,0.96
7,U26G U73A,1.61
8,U26A A129U,1.06
9,C28U A92U,0.43
10,G27A G53U,1.14
11,G27A G53A,0.94
12,U26G A57G,0.82
13,U26C G60A,0.12
14,G27A A79U,1.36
15,G27A A79G,1.07
16,A24U A142C,1.54
17,A24U A142G,1.29
18,G27A A78G,0.74
19,A24U U119G,2.22
20,C28U A77G,1.38
21,C28U A77C,1.07
22,U26C C95U,0.24
23,U26G A59G,0.41
